Two molecules from PMC8476643 (Nature Communications, 2021) can be followed below.

The target in test [1] is T1, SARS-CoV-2 two-proline stabilized S trimer (S-2P) (SARS-CoV-2 Wuhan-Hu-1 (GenBank …, UniProt P0DTC2, stabilised)).
T1 construct: also called SARS-CoV-2 S-2P
Kind of test: SPR. Particulars: both partners purified.

Test [2] has as its target T1, SARS-CoV-2 two-proline stabilized S …. Kind of test: SPR. To be noted: both partners purified. The source holds these as a separate data set.

B1: 7D6 monoclonal antibody (antibody, V domains shown)
VH: EVQLQQSGAELVRPGASVKLSCTASGFNIKDTYIHWVKQRPEQGLEWIGRIDPGDGDTEYDPSFQGKATITADTSSNTAYLELSSLTSEDTAVYYCTRFYDYVDYGMDYWGQGTSVTVSS
VL: DIQMTQSPASLSASVGETVTITCRASGNIHNYLAWYQQKQGKSPQLLVYNAKTLADGVPSRFSGSGSGTQYSLKINSLQPEDFGSYYCQHFWSTPPWTFGGGTKLEVK
notes: also called mAb 7D6; source: mouse hybridoma, ascites, purified (protein A agarose); copies: 2 + 2
The term Kd denotes a measure of binding affinity in units of concentration. High values mean weaker binding, low ones tighter binding. One may read the koff as the first-order rate constant of dissociation. Lower therefore signals a long-lived complex. Broadly, the kon is a measure of how fast the partners come together. B1: the Kd in test [1] was 5.8 nM. In test [2], this molecule returned a Kd of 5.89 nM, a koff of 8.81e-05 s⁻¹ and a kon of 15200 M⁻¹ s⁻¹.

B2: 6D6 monoclonal antibody (antibody, V domains shown)
VH: EVQLQQSGAELVKPGASVKLSCTTSGFNIIDTYMHWVKQRPEEGLEWIGGIDPVNGNSEYDPKFQDKATITADTSSNTAYLHLSRLTSEDTAVYYCASAHYYGSSSSFPYWGQGTLVTVSA
VL: DIVMTQSQKFMSTSVGDRVSVTCKASQNVGTHVAWYQQKPGQSPKALIYSASYRYSGVPDRFTGSGVGTDFTLTITNVQSEDLAEYFCQQYNSYFTFGSGTKLEIK
notes: also called mAb 6D6; source: mouse hybridoma, ascites, purified (protein A agarose); copies: 2 + 2
In the case of B2, in test [2], the equilibrium dissociation constant (Kd) was 0.03 nM, the koff was found to be 4.2e-06 s⁻¹ and the kon stood at 123000 M⁻¹ s⁻¹.
